For the data set the following is noted: Schizosaccharomyces pombe (strain 972 / ATCC 24843); pH 7.5; 25 °C; Urea; Fluorescence; Tris 50 mM; whole UniProt chain shown.

B1: Cyclin-dependent kinases regulatory subunit wild type, P08463 (protein)
chain: MSKSGVPRLLTASERERLEPFIDQIHYSPRYADDEYEYRHVMLPKAMLKAIPTDYFNPETGTLRILQEEEWRGLGITQSLGWEMYEVHVPEPHILLFKREKDYQMKFSQQRGG
B1: the denaturant m value is 1.63 kcal/mol/M and the “denaturant midpoint (higher = more stable)” value was 4.42 M.

Values taken from FireProtDB (doi:10.1006/jmbi.2000.3958).
